Results published in US20240132857.
Residue numbers refer to the chain shown, from its start. Numbers in names are those of the source.

B1: Ube2N^D119A (protein)
chain: GMAGLPRRIIKETQRLLAEPVPGIKAEPDESNARYFHVVIAGPQDSPFEGGTFKLELFLPEEYPMAAPKVRFMTKIYHPNVDKLGRICLDILKDKWSPALQIRTVLLSIQALLSAPNPDAPLANDVAEQWKTNEAQAIETARAWTRLYAMNNI
B2: Ube2N^N123A (protein)
chain: B1 chain with A120D, N124A
B3: Ube2N^D124A (protein)
chain: B1 chain with A120D, D125A
B4: Ube2N^D119N (protein)
chain: B1 chain with A120N

These proteins were tested against Ub^1-74, P0CG48.
Sequence of Ub^1-74, P0CG48 (P0CG48 whole entry, looked up, tested part not stated): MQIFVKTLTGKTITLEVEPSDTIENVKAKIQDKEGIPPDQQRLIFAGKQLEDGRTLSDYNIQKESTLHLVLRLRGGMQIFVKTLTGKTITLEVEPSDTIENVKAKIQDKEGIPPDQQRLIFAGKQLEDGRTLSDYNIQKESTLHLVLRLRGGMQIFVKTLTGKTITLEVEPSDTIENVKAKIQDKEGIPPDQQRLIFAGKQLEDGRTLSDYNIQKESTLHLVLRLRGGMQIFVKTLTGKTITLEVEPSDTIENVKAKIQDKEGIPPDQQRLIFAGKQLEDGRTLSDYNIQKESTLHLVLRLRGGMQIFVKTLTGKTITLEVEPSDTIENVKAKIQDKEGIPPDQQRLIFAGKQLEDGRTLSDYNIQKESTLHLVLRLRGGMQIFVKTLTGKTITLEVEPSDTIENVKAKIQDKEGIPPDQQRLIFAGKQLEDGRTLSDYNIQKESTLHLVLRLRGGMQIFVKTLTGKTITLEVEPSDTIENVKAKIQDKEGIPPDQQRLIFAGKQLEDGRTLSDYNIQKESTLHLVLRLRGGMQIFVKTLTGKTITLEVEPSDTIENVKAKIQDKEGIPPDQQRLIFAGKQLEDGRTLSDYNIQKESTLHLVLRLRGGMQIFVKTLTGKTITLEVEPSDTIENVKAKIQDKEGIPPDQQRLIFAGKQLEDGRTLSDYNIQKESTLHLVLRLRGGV

Protein | KM of di-ubiquitin formation, fold increase against wild-type Ube2N | kcat of di-ubiquitin formation, fold reduction against wild-type Ube2N
B1 | modestly increased the KM by ˜4 and ˜7-fold, respectively | Mutation to alanine reduced kcat 100-fold
B2 |  | The ˜3-fold reduction in kcat
B3 |  | The ˜3-fold reduction in kcat
B4 | modestly increased the KM by ˜4 and ˜7-fold, respectively | mutation to asparagine 30-fold
